Results taken from PMC5052687, “The structural basis for CD36 binding by the malaria parasite” (Nature Communications, 2016).
Where a chain is given by its changes, count along the chain named. Names and notes keep the numbering of the source.

B1: MCvar1 PfEMP1 CIDRα2.8 domain (residues 576-745, C626S) (domain or fragment)
chain: EDKIMSYNAFFWMWVHDMLIDSIKWRDEHGRCINKDKGKTCIKGCNKKCISFQKWVEQKKTEWGKIKDHFRKQKDIPKDWTHDDFLQTLLMKDLLLEIIQDTYGDANEIKRIEALLEQAGVGGIDFAALAGLYTKGFVAEKDTTIDKLLQHEQKEADKCLKTHTDDTCPP
notes: PfEMP1 MCvar1, Plasmodium falciparum, CIDRα2.8 domain, residues 576-745; Synthetic codon-optimised cDNA (GeneArt) cloned into pHLsec-8H; also called MCvar1 CIDRα2.8; source: HEK293 cells, secreted, purified (TALON, size-exclusion chromatography); coexpressed with CD36 with kifunensine for the structure and SEC-MALS, expressed individually for SPR
B2: MCvar1 PfEMP1 CIDRα2.8 domain (residues 576-745, C626S) (domain or fragment)
chain: B1 chain
notes: CIDRα2.8 domain of the MCvar1 PfEMP1, Plasmodium falciparum; the reverse cloning primer (D1:p11) ends at ...DTCPP; also called MCvar1 CIDRα2.8; MC179 CIDRα2.8; source: HEK293, secreted, purified (TALON, size-exclusion chromatography); for the crystal co-expressed with CD36 in the presence of kifunensine
B3: MCvar1 CIDRα2.8 domain (residues 576-745, C626S) Q648A (domain or fragment)
chain: B1 chain with Q73A
notes: CIDRα2.8 domain of the MCvar1 PfEMP1, Plasmodium falciparum; source: HEK293, secreted, purified (TALON, size-exclusion chromatography)
B4: MCvar1 CIDRα2.8 domain (residues 576-745, C626S) D680N:N682T (domain or fragment)
chain: B1 chain with D105N, N107T
modifications: N-linked glycan at the introduced site on the majority of the protein
notes: CIDRα2.8 domain of the MCvar1 PfEMP1, Plasmodium falciparum; Introduces an N-linked glycosylation site into site 2 of the crystal; also called site 2 mutant; site 2; source: HEK293, secreted, purified (TALON, size-exclusion chromatography)
B5: MCvar1 CIDRα2.8 domain (residues 576-745, C626S) F660N:Q662T (domain or fragment)
chain: B1 chain with F85N, Q87T
modifications: N-linked glycan at the introduced site on a small fraction of the protein
notes: CIDRα2.8 domain of the MCvar1 PfEMP1, Plasmodium falciparum; Introduces an N-linked glycosylation site into site 1 of the crystal; also called site 1 mutant; site 1; source: HEK293, secreted, purified (TALON, size-exclusion chromatography)
B6: MCvar1 CIDRα2.8 domain (residues 576-745, C626S) E672A (domain or fragment)
chain: B1 chain with E97A
notes: as for B3
B7: IT4var15 CIDRα3.5 domain (domain or fragment)
chain: PGCGVELIGNEWKEKNKGECKGGKRYNIPKGTKHNVIPVLSFGDEHKEIIEKIEQFCAESNSDSSKLTEQWKCYYGDKEYEVCTLENRNKSEEDPEEIQKTFHNFFYFWIRHLLNDSIEWRDKINNCIEKAKEGKCKNECKTDCGCFQRWIGKKKEEWGEIKKHFKTQDGFSIFGNNYDFVLENVLNIDELFQDITEAYGNSQKIQGIKDTLAKKKTQAADDATEQKNTIDLLFEYDSEEAEKCKKIQEEC
notes: CIDRα3.5 domain of the PfEMP1 IT4var15, Plasmodium falciparum; also called CIDRα3.5 IT4var15; IT4var15 (α3.5)
B8: IT4var30 CIDRα2.10 domain (domain or fragment)
chain: PWCGIEEQKVDGKWKAKNNGECAKVENKIYDPKKTTTIEILTGDNEKFGIYEKYNKFCANGKNGVTSGAPDTAPGKNGNQIVTWQCYYDKKKRSGQNNDNCVEGTWEKFTGKQTVKSYNVFFWDWVYHMLHDSLEWRERLNSCINNAKSQNCKNNKCNRECGCFAKWVVKKKDEWDKIKDHFNKQENIGQNVGFIEFNHYGVLEGVLDKDELLKNIKDTHADAKDIERIDKMLQQAGVVGGGRGGENNTIIDKFLQEEERFAKDCQQKQEEC
notes: CIDRα2.10 domain of the PfEMP1 IT4var30, Plasmodium falciparum; also called CIDRα2.10 IT4var30; IT4var30 (α2.10)
B9: IT4var14 CIDRα5 domain (domain or fragment)
chain: PWCGIEEQKDGKWKRINDHSACKEEELYTPKENAKYTKINVLTSGEGHEDIAKRLKEFCTKTQNGGGGSDDCGGNSDSSLCEPWQCYQPDQLEKVGGGEVDDKLKGAGGLCIFEKMKGEKKVKKQKTFNNFFNFWVAHVLKDSIDWRTQLTKCLSEDKLKKCEKGCKSNCECFKKWIEKKEKEWIKVKDQFNKQTDFLEWKHYLVLETILENYYFENIQKAYGDLKSIQEMKKMIKENKQNKNRTKDDEDALDVLFDHEKEEAEDCLDIHE
notes: CIDRα5 domain of the PfEMP1 IT4var14, Plasmodium falciparum; also called CIDRα5 IT4var14; IT4var14 (α5)
B10: HB3var13 CIDRα3.2 domain (domain or fragment)
chain: PLCGVKKEKGTWVRKDSMNDCPRIKLYKPINDKVGTPINFLYSGDGQTEIAEKLKKFCRTENGSDGSSSARANGASGDKNGGSGSQELYQYWKCYQIGDLQKVREGEDDEDDGQYDQEVENAGGLCILQKTNGKENVNKQKTSHEIQKTFNPFFYYWVVHMLKDSIHWRTEKIKSCINNTNELKACKNNKKCNSDCDCFKRWVKQKGKEWGQIKVHFKTQDIRGKVVNGNTVVSFFLDHDELLEGVLDKGLLLESLQEAYGNAEDIKHIKKLLQETDVVGGGEHKTTIDFLLKEELNEAEECLKKQKDNEC
notes: CIDRα3.2 domain of the PfEMP1 HB3var13, Plasmodium falciparum; also called CIDRα3.2 HB3var13; HB3var13 (α3.2)
B11: IT4var61 CIDRα2.7 domain (domain or fragment)
chain: PWCGVKRNGGGWKAKSDGECAKEKKTYKKKNITEIPVLTPDKEKHNILQKYENFCKNSDGNNGDQIKNWQCYYEEKDESDNDGDSNICVLQNENIGKKEEKSMPYHPFFWKWVTEMLIDSMYWRKELKRCINKETKACKNGCKNNCDCYKRWVEEKKKEWGQIKTHFNTQEDMREDIGENTDPGIILAALLNIEDLFENIKDTYGDVKEIKDINQMLEKENEENEGTAGADSKKKNTIDLMINHEQKDAQKCVTNNPDKDC
notes: CIDRα2.7 domain of the PfEMP1 IT4var61, Plasmodium falciparum; also called CIDRα2.7 IT4var61; IT4var61 (α2.7)
B12: IT4var33 CIDRα2.4 domain (domain or fragment)
chain: PLCGLGMQEPPWNPKKDTDCEDRGIKTFDDRNSTPINLLVKDVTGTSIVEKLGGLCGNGAKKNIQTWKCRFESSQNYYCVLQNDKKNTPQQEIESFNSLFWHWITEMLKDSIDWRKEHENCINNNNTCKKGCKSKCECFEKWVKRMKEEWKQVLEVYDKQPDFKEVFTPYFTLGYLLKEYFTKIKAPYEEVESVQEFIKEMEQIIDENSNNINATKENNSITKFLQHEEGIATECKKTHNEEKC
notes: CIDRα2.4 domain of the PfEMP1 IT4var33, Plasmodium falciparum; also called CIDRα2.4 IT4var33; IT4var33 (α2.4)
B13: MAL6P1.252 CIDRα2.1 domain (domain or fragment)
chain: PWCGVKPGGPPWKDNDIDSCGKKEISFSDKDTTDISILSTDRAKKNILQKLENFCRDTEHINHDIWKCHYENTDNDNCILQNENTGSEKQKIMPFDAFFFLWLTQMLDDSIEWRKKLKTCINNEKPTNCIRGCKKPCECFERWVEQKEEEWISIEKHFDKQRDISEEERYITLEYILNEFFMDKIEKAYGIEKSKELKEKLKSNKGHGIIRDTEHSQDAIKILLEHELEDAKKCTETHNDEKC
notes: CIDRα2.1 domain of the PfEMP1 MAL6P1.252, Plasmodium falciparum; also called CIDRα2.1 MAL6P1.252
B14: IT4var24 CIDRα2.2 domain (domain or fragment)
chain: PLCGVNGPKGNWTDIEDKECTLVEKKKYDSNNTTNIDILTADKSQKNILQKYNKFCKNGANDEKSATPTANGGGQIKNWQCYYDESKESGQNNNCILGKWEDFTGNEDVTSYNVFFYNSIIEMLNDSIEWKDKLNICINNKTGKCRKVCKNPCECYKRWIEKKKTELEKIKDHFRKQKDIGDAAQREMTLNITLNNNFLNDIKDAYPVKQQLQKIEERLKDKMQEDFIFERTKTSIDKFLQEEEQFAEKCIEKHKC
notes: CIDRα2.2 domain of the PfEMP1 IT4var24, Plasmodium falciparum; also called CIDRα2.2 IT4var24; IT4var24 (α2.2)
B15: IT4var12 CIDRα6 domain (domain or fragment)
chain: PWCGLKKQADGTWKRLYENDPQCPIKPKYEPPKGEEPTEIDVLYTGKENKDIIVKLREFCKTDGNTGFKNEEWNCYYQVGNDKCVLENGEELGGEKKVKDYDNFLMFWVAHMLKDSIEWRSKLSNCLKSDKKTCIKKCNDNCKCYEKWIGKKKVEWTQIKKHFDKQTDFQGWGRYFVLETVLEGDQFFTDITKAYGDAREIVHIQEMLQKKKEQVLHEDASNMKTIIDELLDHELKEAKQCIVNHKDNNC
notes: CIDRα6 domain of the PfEMP1 IT4var12, Plasmodium falciparum; also called CIDRα6 IT4var12; IT4var12 (α6)
B16: IT4var45 CIDRα2.9 domain (domain or fragment)
chain: PWCGVNGTKGNWTPKNDDDCKPGNEYKNYENTQIPILTGDKTKSEIVERYRKFCKNNGKNGANGREGGVGGSENGAASNSDNATTGYCGTNNNDKDPSLCEKWTCYYKKKEKNDGKKAINFCVLQDDKVGKSQEKSMHYNSFFWDWVYHMLHDSLDWRKQLGRCINKKEETKCIGSCNKKCECFAKWVGHKQQEWEQIKKHFLKQDDIGQETNCDPMVTLEILLDIDELLKNIKDTHANADDIDRIQNMLQQAGFDGGVAALVGRCTEGFVAEKDTTIDKFLEKELQEAEKCLETHKEKC
notes: CIDRα2.9 domain of the PfEMP1 IT4var45, Plasmodium falciparum; also called CIDRα2.9 IT4var45; IT4var45 (α2.9)

Target: T1, human CD36 ectodomain (residues 35-439) (human, UniProt P16671 35-439)
T1 construct: CD36, human, ectodomain residues 35-439; Cloned into pHLsec-8H (secretion vector); For crystallisation the complex was deglycosylated (endoglycosidase F1) and treated with carboxypeptidase Y in situ
T1 sequence (P16671 35-439): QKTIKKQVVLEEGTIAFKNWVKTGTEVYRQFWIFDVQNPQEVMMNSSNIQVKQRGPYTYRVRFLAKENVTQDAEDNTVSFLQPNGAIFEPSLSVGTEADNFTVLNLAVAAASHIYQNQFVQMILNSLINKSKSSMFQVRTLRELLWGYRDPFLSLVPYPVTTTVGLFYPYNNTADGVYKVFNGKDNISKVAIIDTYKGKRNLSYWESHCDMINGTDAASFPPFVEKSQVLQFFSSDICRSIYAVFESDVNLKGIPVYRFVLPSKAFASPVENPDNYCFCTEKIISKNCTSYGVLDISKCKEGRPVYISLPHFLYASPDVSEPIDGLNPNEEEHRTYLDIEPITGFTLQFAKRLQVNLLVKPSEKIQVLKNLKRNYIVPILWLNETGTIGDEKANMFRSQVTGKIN
Test: SEC-MALS; coexpressed and purified CD36:MCvar1 CIDRα2.8 complex at 1 mg/ml, Superdex S200 10/300 GL, 10 mM HEPES pH 7.5, 0.15 M NaCl
Conditions: both partners purified

| Binder | stoichiometry N |
| --- | --- |
| B1 | 1 |

Target: T2, human CD36 ectodomain (residues 35-439), C-terminal 8xHis and biotinylated BAP tag (human, UniProt P16671 35-439, biotin on the BAP tag (in vitro, BirA ligase))
T2 construct: CD36, human, ectodomain residues 35-439; Construct for SPR; vector pHLsec-8H; also called CD36 wild-type; w.t; source: HEK293T, purified (TALON, size-exclusion chromatography), biotinylated in vitro with BirA; not shown: BAP tag, C-terminal, kept
T2 sequence (P16671 35-439): as above
Test: SPR; biotinylated CD36 (wild type or F153A) immobilised on a CAPture chip to ~700 RU; CIDRα domains as analytes, two-fold dilutions from 400 nM (Supplementary Figure 10: 400 nM only), 240 s injection, 300 s dissociation; 25 °C, 20 mM HEPES pH 7.5, 0.15 M NaCl, 0.005% Tween20; affinities from equilibrium binding, one site-binding model
Conditions: both partners purified

| Binder | Kd [nM] |
| --- | --- |
| B2 | 12 |
| B3 | 362 |
| B4 | 18 |
| B5 | 306 |
| B6 | 86 |

Target: T2, human CD36 ectodomain (residues …)
Test: as above
Conditions: both partners purified
Remark: another data set of the same source

| Binder | Kd [nM] |
| --- | --- |
| B7 | 3 |
| B8 | 55 |
| B9 | 180 |
| B10 | 12.3 |
| B11 | 72 |
| B12 | 3.3 |
| B13 | 3.6 |
| B14 | 15.8 |
| B15 | 6.6 |
| B16 | 23 |
